Measured values taken from article PMC6503385, “Functional characterization of BmOVOs in silkworm, Bombyx mori”.

Biological target: BmOVO zinc-finger domain (BmOVO-2 C-terminal) (Bombyx mori, UniProt D3YIG7 629-806)
Experiment: EMSA; 0.02 mg/ml protein, poly dI.dC; LightShift EMSA kit, 20 ul: 1x binding buffer, 1 ul each poly dI.dC, NP-40, KCl, glycerol; 0.75 pM probe; 20 min at room temperature; 6% polyacrylamide gel; pH
Conditions: protein: recombinant; tags: 6xHis (pET28a); label: biotin (5' on both strands as printed); blunt

BmOVO zinc-finger domain (BmOVO-2 C-terminal), sequence (D3YIG7 entry or part of it): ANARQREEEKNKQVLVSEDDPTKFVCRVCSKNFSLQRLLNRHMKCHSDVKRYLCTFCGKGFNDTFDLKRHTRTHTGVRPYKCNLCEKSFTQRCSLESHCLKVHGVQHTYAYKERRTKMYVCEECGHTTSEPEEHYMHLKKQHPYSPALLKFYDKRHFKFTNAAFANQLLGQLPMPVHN

B1: otu-A (CE1) (dsDNA)
DNA 1: GCCCCTAAAATGTACCGTTGTAACTTCTGT
DNA 2: ACAGAAGTTACAACGGTACATTTTAGGGGC
binding result: binds
